Molecular target: T1, phospho-IRF3 (S386), endogenous (human (endogenous in SALE)), Q14653
T1 chain: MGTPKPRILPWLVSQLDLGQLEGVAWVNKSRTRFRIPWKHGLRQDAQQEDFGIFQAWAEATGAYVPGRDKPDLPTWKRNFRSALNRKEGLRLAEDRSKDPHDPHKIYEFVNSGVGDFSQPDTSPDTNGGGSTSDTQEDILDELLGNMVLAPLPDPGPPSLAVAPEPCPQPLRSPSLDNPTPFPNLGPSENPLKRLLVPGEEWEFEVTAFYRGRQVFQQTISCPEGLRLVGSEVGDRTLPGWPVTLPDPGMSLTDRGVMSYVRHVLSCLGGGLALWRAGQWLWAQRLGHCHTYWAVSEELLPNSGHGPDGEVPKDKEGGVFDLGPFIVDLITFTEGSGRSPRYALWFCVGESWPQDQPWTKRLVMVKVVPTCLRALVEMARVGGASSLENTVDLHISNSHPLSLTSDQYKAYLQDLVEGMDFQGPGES
Assay: native gel or EMSA
Conditions: remark: other sources report otherwise

B1: phospho-IRF3 (S386), endogenous, Q14653 1-427 (natural protein)
chain: T1 chain
modifications: here or on the partner: phosphoserine at 386; phosphoserine at 386
- stoichiometry N: 2

Reference: PMC2684960
